B1: anti-HER2 humanized synthetic single domain antibody sdAb no 5 (VHH)
VHH: EVQLQASGGGFVQPGGSLRLSCAASGYTFSEETMGWFRQAPGKEREFVSAISWNHTFFEYYADSVKGRFTISRDNSKNTVYLQMNSLRAEDTATYYCAVTPLPPNKAYWGQGTQVTVSS
notes: Purified sdAb in BLI; also called sdAb 5; hsdAb 5
B2: anti-HER2 humanized synthetic single domain antibody sdAb no 4 (VHH)
VHH: EVQLQASGGGFVQPGGSLRLSCAASGYTSRESGMGWFRQAPGKEREFVSAISRDQDGISYYADSVKGRFTISRDNSKNTVYLQMNSLRAEDTATYYCAMIPLTRNAKYWGQGTQVTVSS
notes: Purified sdAb in BLI; Any tag is not described for this assay; also called sdAb 4
B3: anti-HER2 humanized synthetic single domain antibody sdAb no 2 (VHH)
VHH: EVQLQASGGGFVQPGGSLRLSCAASGDSYNESSMGWFRQAPGKEREFVSAISARGNHPLYYADSVKGRFTISRDNSKNTVYLQMNSLRAEDTATYYCASMPMPKWKKYWGQGTQVTVSS
notes: Purified sdAb in BLI; also called sdAb 2; hsdAb 2
B4: anti-HER2 humanized synthetic single domain antibody sdAb no 1 (VHH)
VHH: EVQLQASGGGFVQPGGSLRLSCAASGATSNISNMGWFRQAPGKEREFVSAISRAESRPLYYADSVKGRFTISRDNSKNTVYLQMNSLRAEDTATYYCAYMPLVRHKAYWGQGTQVTVSS
notes: Purified sdAb in BLI; also called sdAb 1; hsdAb1
B5: anti-HER2 humanized synthetic single domain antibody sdAb no 6 (VHH)
VHH: EVQLQASGGGFVQPGGSLRLSCAASGRGYTGTTMGWFRQAPGKEREFVSAISWTSNQTSYYADSVKGRFTISRDNSKNTVYLQMNSLRAEDTATYYCAMMPLPRWKGYWGQGTQVTVSS
notes: Purified sdAb in BLI; Any tag is not described for this assay; also called sdAb 6

molecular target: T1, recombinant human Her2/ErbB2 Fc Tag (ACROBiosystems) (human, UniProt P04626 23-652); assay: BLI (Octet-HTX), HER2-Fc captured on protein A biosensors, sdAb in solution, 37 C
T1 construct: Bought product; Captured on protein A biosensors; also called HER2-Fc; not shown: Fc tag of the bought product
From the text: Affinity measurements: Affinity measurements can be done by surface plasmon resonance (for example as detailed in Moutel, Sandrine et al. “NaLi-H1: A universal synthetic library of humanized nanobodies providing highly functional antibodies and intrabodies.” eLife vol. 5 e16228. 19 Jul. 2016, doi:10.7554/eLife.16228). More particularly, binding affinities of selected hs2dAb fused to a 10HIS tag measured by surface plasmon resonance single cycle kinetics method. Dissociation equilibrium constant KD corresponds to the ratio between off-rate and on-rate kinetic constant Koff/Kₒₙ. […] Affinity measurements were also performed on an Octet-HTX (Sartorius) by bio-Layer Interferometry (BLI) which is an optical technique for measuring macromolecular interactions by analyzing interference patterns of white light reflected from the surface of a biosensor tip. BLI experiments were used to determine the kinetics and affinity of molecular interactions. Biosensors with proteinA were used to capture recombinant human Her2/ErbB2 Fc Tag (ACROBiosystems), the sensors were then dipped in wells containing purified sdAb to measure kinetics at 37° C.
Affinity measurement were also performed using BLI as above detailed.

| Kd [nM] | koff [s⁻¹] | kon [M⁻¹ s⁻¹] | Binder |
| --- | --- | --- | --- |
| 33.3 | 0.0015 | 44000 | B1 |
| 5.2 | 0.0076 | 1.47e+06 | B2 |
| 4.1 | 0.0049 | 1.2e+06 | B3 |
| 4.6 | 0.004 | 880000 | B4 |
| 8.4 | 0.0066 | 780000 | B5 |
